B1: GSK3A (protein)
chain: MSGGGPSGGGPGGSGRARTSSFAEPGGGGGGGGGGPGGSASGPGGTGGGKASVGAMGGGVGASSSGGGPGGSGGGGSGGPGAGTSFPPPGVKLGRDSGKVTTVVATLGQGPERSQEVAYTDIKVIGNGSFGVVYQARLAETRELVAIKKVLQDKRFKNRELQIMRKLDHCNIVRLRYFFYSSGEKKDELYLNLVLEYVPETVYRVARHFTKAKLTIPILYVKVYMYQLFRSLAYIHSQGVCHRDIKPQNLLVDPDTAVLKLCDFGSAKQLVRGEPNVSYICSRYYRAPELIFGATDYTSSIDVWSAGCVLAELLLGQPIFPGDSGVDQLVEIIKVLGTPTREQIREMNPNYTEFKFPQIKAHPWTKVFKSRTPPEAIALCSSLLEYTPSSRLSPLEACAHSFFDELRCLGTQLPNNRPLPPLFNFSAGELSIQPSLNAILIPPHLRSPAGTTTLTPSSQALTETPTSSDWQSTDATPTLTNSS
modifications: left off: small tags and cut ends
B2: GRK7 (protein)
chain: MVDMGALDNLIANTAYLQARKPSDCDSKELQRRRRSLALPGLQGCAELRQKLSLNFHSLCEQQPIGRRLFRDFLATVPTFRKAATFLEDVQNWELAEEGPTKDSALQGLVATCASAPAPGNPQPFLSQAVATKCQAATTEEERVAAVTLAKAEAMAFLQEQPFKDFVTSAFYDKFLQWKLFEMQPVSDKYFTEFRVLGKGGFGEVCAVQVKNTGKMYACKKLDKKRLKKKGGEKMALLEKEILEKVSSPFIVSLAYAFESKTHLCLVMSLMNGGDLKFHIYNVGTRGLDMSRVIFYSAQIACGMLHLHELGIVYRDMKPENVLLDDLGNCRLSDLGLAVEMKGGKPITQRAGTNGYMAPEILMEKVSYSYPVDWFAMGCSIYEMVAGRTPFKDYKEKVSKEDLKQRTLQDEVKFQHDNFTEEAKDICRLFLAKKPEQRLGSREKSDDPRKHHFFKTINFPRLEAGLIEPPFVPDPSVVYAKDIAEIDDFSEVRGVEFDDKDKQFFKNFATGAVPIAWQEEIIETGLFEELNDPNRPTGCEEGNSSKSGVCLLL
modifications: left off: a dimerising Fc or GST
B3: GRK6 (protein)
chain: MELENIVANTVLLKAREGGGGNRKGKSKKWRQMLQFPHISQCEELRLSLERDYHSLCERQPIGRLLFREFCATRPELSRCVAFLDGVAEYEVTPDDKRKACGRQLTQNFLSHTGPDLIPEVPRQLVTNCTQRLEQGPCKDLFQELTRLTHEYLSVAPFADYLDSIYFNRFLQWKWLERQPVTKNTFRQYRVLGKGGFGEVCACQVRATGKMYACKKLEKKRIKKRKGEAMALNEKQILEKVNSRFVVSLAYAYETKDALCLVLTLMNGGDLKFHIYHMGQAGFPEARAVFYAAEICCGLEDLHRERIVYRDLKPENILLDDHGHIRISDLGLAVHVPEGQTIKGRVGTVGYMAPEVVKNERYTFSPDWWALGCLLYEMIAGQSPFQQRKKKIKREEVERLVKEVPEEYSERFSPQARSLCSQLLCKDPAERLGCRGGSAREVKEHPLFKKLNFKRLGAGMLEPPFKPDPQAIYCKDVLDIEQFSTVKGVELEPTDQDFYQKFATGSVPIPWQNEMVETECFQELNVFGLDGSVPPDLDWKGQPPAPPKKGLLQRLFSRQDCCGNCSDSEEELPTRL
modifications: left off: a dimerising Fc or GST
B4: EPHA3 (protein)
chain: RFCGYKSKHGADEKRLHFGNGHLKLPGLRTYVDPHTYEDPTQAVHEFAKELDATNISIDKVVGAGEFGEVCSGRLKLPSKKEISVAIKTLKVGYTEKQRRDFLGEASIMGQFDHPNIIRLEGVVTKSKPVMIVTEYMENGSLDSFLRKHDAQFTVIQLVGMLRGIASGMKYLSDMGYVHRDLAARNILINSNLVCKVSDFGLSRVLEDDPEAAYTTRGGKIPIRWTSPEAIAYRKFTSASDVWSYGIVLWEVMSYGERPYWEMSNQDVIKAVDEGYRLPPPMDCPAALYQLMLDCWQKDRNNRPKFEQIVSILDKLIRNPGSLKIITSAAARPSNLLLDQSNVDITTFRTTGDWLNGVWTAHCKEIFTGVEYSSCDTIAKISTDDMKKVGVTVVGPQKKIISSIKALETQSKNGPVPV
modifications: left off: small tags and cut ends

System: kinases of Table 6 on Myelin Basic Protein (MBP)
Assay: Kinase assay using MBP substrate, ProQ Diamond stain (Table 6)
Assay type: biochemical
Conditions: kinase printed on MBP-coated slide; 20 uM ATP, 30° C.; ProQ Diamond Microarray Stain; graded Strong/Weak/Negative
Experimental: In this illustrative example, four-well slides were designed with a hydrophobic mask surrounding 4-wells of aldehyde- or epoxy-coated glass (smooth or ES grade; Erie Scientific (Portsmouth, N.H.)). […] Bovine, dephosphorylated, Myelin Basic Protein (MBP) was purchased from Upstate Biotechnology (#13-110). MBP was diluted to 1 mg/ml in PBS, applied to the slide surface, covered with a coverslip, and left overnight at 4° C. to coat the slide with the MBP. Slides were washed 3 times with water and spun dry before printing.
Kinases were purchased from Panvera (Invitrogen, Carlsbad, Calif.), diluted in printing buffer (50 mM Tris pH 7.5, 25% glyercol, 0.05% TritonX-100, 2 mM DTT) and deposited using a GeneMachine OmniGrid100. Slides were stored at −20° C.
Reactions were performed following removal of the slide from the freezer. Reaction buffer (20 mM HEPES pH 7.5, 4 mM MgCl2, 2 mM DTT, 20 uM ATP, 5% DMSO) was added with or without inhibitor, a coverslip applied, and the slide placed at 30° C. for the appropriate reaction time. The slide was washed with water to stop the reaction (3 times) and spun dry. ProQ Diamond Microarray Stain (Invitrogen #P33706) was applied, covered with a coverslip, and the slide was incubated in the dark at room temperature for 30 minutes. The slide was destained and washed three times with water, and spun dry.

Molecule | MBP Kinase Activity
B1 | Weak
B2 | Negative
B3 | Negative
B4 | Strong

From patent US20090099029A1, “Methods and substrates for conducting assays” (Invitrogen Corporation, priority 2005, published 2009)
